{"source": "paper PMC3066550", "assay_in_all_cases": "co-IP", "key": {"[1]": {"biological_target": "LANADBD SKK953AAA (Kaposi's sarcoma-associated herpesvirus (KSHV; human herpesvirus 8))"}, "[2]": {"biological_target": "LANADBD K871A (Kaposi's sarcoma-associated herpesvirus (KSHV; human herpesvirus 8))"}, "[3]": {"biological_target": "LANADBD LSQ912AAA (Kaposi's sarcoma-associated herpesvirus (KSHV; human herpesvirus 8))"}, "[4]": {"biological_target": "LANADBD YR879AA (Kaposi's sarcoma-associated herpesvirus (KSHV; human herpesvirus 8))"}, "[5]": {"biological_target": "LANADBD KDT950AAA (Kaposi's sarcoma-associated herpesvirus (KSHV; human herpesvirus 8))"}, "[6]": {"biological_target": "LANADBD WE963AA (Kaposi's sarcoma-associated herpesvirus (KSHV; human herpesvirus 8))"}, "[7]": {"biological_target": "LANADBD HIF876AAA (Kaposi's sarcoma-associated herpesvirus (KSHV; human herpesvirus 8))"}, "[8]": {"biological_target": "LANADBD YGL907AAA (Kaposi's sarcoma-associated herpesvirus (KSHV; human herpesvirus 8))"}, "[9]": {"biological_target": "LANADBD R873A (Kaposi's sarcoma-associated herpesvirus (KSHV; human herpesvirus 8))"}}}
{"substance": "wild-type KSHV LANA DNA-binding domain (LANADBD, aa 775-1003) (domain or fragment)", "values": [{"measurement": "dimerization activity by IP, percent of wt", "setting": "[1]", "value": "64 % of wt"}, {"measurement": "dimerization activity by IP, percent of wt", "setting": "[2]", "value": "74 % of wt"}, {"measurement": "dimerization activity by IP, percent of wt", "setting": "[3]", "value": "248 % of wt"}, {"measurement": "dimerization activity by IP, percent of wt", "setting": "[4]", "value": "73 % of wt"}, {"measurement": "dimerization activity by IP, percent of wt", "setting": "[5]", "value": "74 % of wt"}, {"measurement": "dimerization activity by IP, percent of wt", "setting": "[6]", "value": "29 % of wt"}, {"measurement": "dimerization activity by IP, percent of wt", "setting": "[7]", "value": "127 % of wt"}, {"measurement": "dimerization activity by IP, percent of wt", "setting": "[8]", "value": "73 % of wt"}, {"measurement": "dimerization activity by IP, percent of wt", "setting": "[9]", "value": "135 % of wt"}]}
